In patent US20240218057A1 (ROCKEFELLER UNIVERSITY, published 2024) one finds EC50 data, which are given here for 23 molecules.

This assay addresses T1, SARS-COV-2 RBD (SARS-COV-2, UniProt P0DTC2 319-539).
T1 construct: also called WT RBD
The experiment in a line: ELISA, RBD coated. (In an ELISA, binding on a coated surface is turned into a signal by an enzyme label.)

B1: C853 (antibody, V domains shown)
VH: QVQLQESGPGLVKASQTLSLTCTVSGGSFRSGGYYYNWIRQHPGKGLEWIGYIFYTGVTYYNPSLKSRVSISVDTSKNQLSLNLTSVTAADTAVYYCARGSYSDYNGGWDYWGRGTLVTVS
VL: QSALTQPPSASGSPGQSVTISCIGTSSDVGGYNYVSWYQHHPGKAPKLIIYEVSKRPSGVPDRFSGSKSGNTASLTVSGLQADDEADYYCSSYAGSNNWVFGGGTKLTV
notes: IgG; V domains only
For B1, the midpoint of the response, the EC50, lay at 2.3 ng/mL.

B2: C846 (antibody, V domains shown)
VH: QVQLVESGGGVFQPGRSLRLSCAASGFNFRTYAMHWVRQAPGKGLEWVAVILDDGSGKFYADSVKGRFTVSRDNSKHTLYLQMTSLSAEDTAIYFCARDQGTATTYFDHWGQGTLVTVSS
VL: DIQMTQSPSSLSASVGDRVTITCRASQSIRTFLSWYQQKAGKAPKLLIYTASSLQNGVPSRFSGSGSGTDFTLTISSLQPEDFATYYCQQSYETPPWTFGQGTKVEIK
notes: IgG; V domains only
On to B2, for which the EC50 is 3.48 ng/mL.

B3: C850 (antibody, V domains shown)
VH: QVQLQESGPGLVKPSETLSLICSVSGVSVSSRNFFWSWIRQPPGKGLEWIGYMSYGGNTNYNPSLKSRVTISIDTSKNQFSLKLSSVTAADTAVYYCARETYYYDRSGYYSSDGFDYWGQGILVTVSS
VL: EIVLTQSPGTLSLSPGERATLSCRASQSITSSSLAWYQQKRGQPPRLLIYGASSRATGIPDRFSGSGSGTDLTLTISRLEPEDFAVYYCQQYGNSPYTFGQGTKLEIK
notes: IgG; V domains only
For B3, the midpoint of the response, the EC50, lay at 3.7 ng/mL.

B4: C864 (antibody, V domains shown)
VH: QVQLVQSGPEVKKPGTSVKVSCKAFQLSFSVSAVQWVRQARGQRLEWIGWIVVGSGNTNYAQKFQERVTITRDMSTSTVYMEVRSLRSEDTAVYYCAAPQCNRTTCYDAFDMWGQGTMVTVSS
VL: EIVLTQSPGTLSLSPGERATLSCRASQSVNSNYLAWYQQKPGQAPRLLIFGPSNRATGIPDRFSGSGSGTDFTLTISRLESEDFAVYYCQQYGSSPWTFGQGTKVEIK
notes: IgG; V domains only
In the case of B4, a half-maximal response (EC50) required 1.89 ng/mL. This EC50 lies about 2-fold lower than the previous one.

B5: C840 (antibody, V domains shown)
VH: QVQLVESGGGVVQPGRSLRLSCEASGFTFTAYAMHWLRQAPGKGLEWVAVILNDGSNKLYADSVKGRFTVSRDNSKNMLYLQVNSLRVDDTAVYYCARDGSVDTLMVTWFDYWGQGTLVTVSS
VL: DIQMTQSPSSLSASVGDRVTITCRASQSVNNYLNWYQQKPGQAPKLLIYAASSLQSGVPLRFSGSGSGTDFALTITSLHTEDFATYYCQQSYNTPPWTFGPGTKVEIK
notes: IgG; V domains only
In turn, B5 had an EC50 of 1.36 ng/mL.

B6: C847 (antibody, V domains shown)
VH: QVQLVESGGGVVQPGGSLRLSCGASGFTFSSYAMHWVRQAPGEGLEWVAVILYDGAGKFYADSVKGRFTISRDNSKNTLYLQMNSLRAEDTAVYYCARDYGDYVTHFDYWGQGALVTVSS
VL: DIQMTQSPSSLSASVGDRVTITCRASQSISSYLNWYQQKPGKAPKLLIYTASSLQSGVPSRFSGSGSGTDFTLTITSLQPEDFATYYCQQSYNTPPWTFGQGTKVEIK
notes: IgG; V domains only
For the molecule B6, the EC50 came out at 3.06 ng/mL.

B7: C842 (antibody, V domains shown)
VH: QVQLVESGGGVVQPGRSLRLSCAASGFTFSTYAIHWVRQAPGKGLEWVAAISYDGSNKYYSDSVKGRLFISRDNSNNTVYLQMNNLRAEDTAIYYCARDGTIVTLVRGVMGPPFDYWGQGTLVTVSS
VL: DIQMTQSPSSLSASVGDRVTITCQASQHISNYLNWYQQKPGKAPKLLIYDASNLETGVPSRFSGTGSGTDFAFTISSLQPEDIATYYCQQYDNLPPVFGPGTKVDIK
notes: IgG; V domains only
Molecule B7 returned an EC50 of 3.01 ng/mL. This EC50 and that of the molecule before are within 1.5-fold of each other.

B8: C854 (antibody, V domains shown)
VH: EVQLVESGGGLIQPGGSLRLSCAASGITVSSNYMNWVRQAPGKGLEWVSVLYAGGSTFYADSVKGRFTISRDDSKNTLYLQMDSLRAEDTAVYYCARDLSSSGGFDYWGQGTLVTVSS
VL: EIVLTQSPGTLSLSPGERATLSCRASQSVSSSYLAWYQQKPGQAPRLLIYGASSRATGIPDRFSGRGSGTDFTLTISRLEPEDFAVYYCQQYGSLYTFGQGTKLEIK
notes: IgG; V domains only
Take B8: the EC50 amounted to 2.57 ng/mL.

B9: C855 (antibody, V domains shown)
VH: QVQLVESGGGVVQPGRSLRLSCAASGFAFSTYGMHWVRQTPGKGLAWVAAISYDGRNTYYGDSVKGRFTITRDNSKNTLYLQLNSLRDEDTALYYCARDATMITLVRGIMGPPFDHWGQGSLVTVSS
VL: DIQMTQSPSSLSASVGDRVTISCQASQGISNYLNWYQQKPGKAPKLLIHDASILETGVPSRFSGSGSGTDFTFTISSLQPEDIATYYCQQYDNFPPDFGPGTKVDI
notes: IgG; V domains only
In turn, B9 had an EC50 of 2.73 ng/mL. The EC50 values of the last two molecules are within 1.5-fold of each other.

B10: C851 (antibody, V domains shown)
VH: QLQLQESGPGLVKTSETLSLTCTVSGGSISSGNSYWGWIRQPPGKGLEWIGDIYYSGSTFYNPSLKSRLTISVDTSKNQFSLKLTSVTAADTAVYYCARRGGRTPVRFNYGGDVWGQGTTVTVSS
VL: DIQMTQSPSSLSASVGDRVTITCQASQDISRYLNWFQHKPGKAPKLLIYDASNLEAGVPSRFTGSGSGTEFTFTISSLQPEDFAIYFCQQYDSLPLTFGGGTKVEI
notes: IgG; V domains only
The molecule B10 gave an EC50 of 2.83 ng/mL.

B11: C856 (antibody, V domains shown)
VH: QVQLVESGGGVVQPGRSLRLSCAASGFTFSSYGMHWVRQAPGKGLEWVAVISYDGSNKYYADSVKGRFTISRDNSKNTLYLQMSSLRAEDTAVYYCAKQIGEYCSGGSCYQGSLDYWGQGTLVTVSS
VL: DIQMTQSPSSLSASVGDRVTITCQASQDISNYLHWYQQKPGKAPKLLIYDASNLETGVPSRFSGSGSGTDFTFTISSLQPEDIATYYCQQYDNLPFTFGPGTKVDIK
notes: IgG; V domains only
With B11, the EC50 is 2.65 ng/mL.

B12: C843 (antibody, V domains shown)
VH: QVQLVESGGGVVQPGRSLRLSCAASGFTFSRYAMHWVRQAPGKGLEWVAVISYDGSNKYYATSLKGRCTISRDNSKNTLYLQMNSLRAEDTAVYFCAKQIGEYCSGGNCYQGSLDYWGQGTLVTVSS
VL: DIQMTQSPSSLSASVGDRVTITCQASQDISNYLNWYQQKPGKAPKLLIYDASDLETGVPSTFSGSGSGTDFTLTISSLQPEDFATYYCQQYDIVPFTFGPGTKVDIK
notes: IgG; V domains only
Take B12: a half-maximal effect (EC50) was put at 2.4 ng/mL. The EC50 values of the last two molecules are within 1.5-fold of each other.

B13: C848 (antibody, V domains shown)
VH: QVQLQESGPGLVKPSQTLSLTCTVSGGSISSGDYYWSWIRQPPGKGLEWIGYIYYTGITYYRPSLKSRVTISVDTSKNQFSLKLSSVTAADTAVFYCARVVRLWPRYFDSWGQGTLVTVSS
VL: QSALTQPPSASGSPGQSVTISCTGTSSDVGTYDYVSWYQQHPGKAPKVIIYEVTKRPSGVPDRFSGSKSGNTASLTVSGLQAEDEAHYYCSTYAGSDNLEFGGGTKLTVL
notes: IgG; V domains only
B13: a half-maximal effect (EC50) was put at 2.23 ng/mL.

B14: C859 (antibody, V domains shown)
VH: QVQLVQSGAELKKPGASVRVSCKASGYTFTDYYIHWVRQAPGQGFEWMGWINPDSGGTNYPQNFQGRVTMTRGTSISTAYVELTRLRFDDTAVYYCARTSSPHSSSTGDLDYWGQGTLVTVS
VL: SYELTQSPSVSVAPGKTARITCGGRDIGSKSVHWYQQRPGQAPVLVISYDNDRPSGIPERFSGSNSGNTATLTISRVEAGDEADYYCQVWDGTGDHPGWVFGGGTRLTVL
notes: IgG; V domains only
B14: the EC50 was 2.75 ng/mL.

B15: C849 (antibody, V domains shown)
VH: QVQLVQSGAEVKKPGASVKVSCRASGYTFTDHYIHWVRQAPGQGLEWMGWINPNSGDTNYPQKFQGRVTMARDTSISTAHMELRRLKSDDTAVYYCARTSSPHSSSTGDFDSWGQGTLVTVSS
VL: SYELTQPPSVSVAPGKTARITCGGDDIGSKSVHWYQQKSGQAPVLVIHDDSDRPSGIPERFSGSNSGNTATLTISRVEAGDEADYYCQVWDFTGDHPGWVFGGGTKLTVL
notes: IgG; V domains only
Molecule B15 came in with a 50% effective concentration (EC50) of 3.64 ng/mL.

B16: C839 (antibody, V domains shown)
VH: QVQLQESGPGLVKPLDTLSLTCTVSGASISSYYWSWIRQPAGKGLEWIGLIYSSGSTTYNPSLKSRVTMSVDTSKKQFSLNLSSMTAADTAVYYCARGSALNWKSIGYFDSWGQGTLVTV
VL: DIQMTQSPSSLSASIRDRVTITCQASQDISNYLNWYQQKAGEAPKLLIYDASSLETGVPSRFSGSGSGTEFTLTISSLQPEDIATYYCQQYDHVPLTFGGGTKVEIK
notes: IgG; V domains only
Turning to B16, the EC50 is 4.38 ng/mL.

B17: C857 (antibody, V domains shown)
VH: QVQLQESGPGLVKPSQTLSLTCTVSGGSISSGGYYWSWIRQHPGKGLEWIGYIYYSGSTYYNPSLESRVTISVDTSKNQFSLKLSSVTAADTAVYYCASGELSAFGELFPHDYWGQGTLVTVSS
VL: EIVLTQSPATLSLSPGERATLSCRASQSVSTYLAWYQQKPGQAPRLLIYDASNRATGIPARFSGSGSGTDFTLTISSLEPEDFAVYYCQQRSNWLFTFGPGTKVDIK
notes: IgG; V domains only
Regarding B17, the response was half-maximal at 2.01 ng/mL (EC50).

B18: C845 (antibody, V domains shown)
VH: QVQLQESGPGLVKPSQTLSLTCTVSGASISSGEYYWSWVRQPPGKGLEWVGYIYYSGSTYYNPSLKSRVTISVDTSKNHFSLKLKSLTAADTAVYFCATGGLSAFGELFPHDKWGQGTLVTVSS
VL: EIVLTQSPATLSLSPGERATLSCRASQSVGSDLAWYQQKPGQAPRLLIYDTSNRATGIPARFSGSGSGTDFTLTISSLDPADFAVYYCQQRTNWLFSFGPGTKVDIK
notes: IgG; V domains only
The molecule B18 came in with an EC50 of 1.5 ng/mL.

B19: C863 (antibody, V domains shown)
VH: EVQLLESGGGLVRPGGSLRLSCAASGFIFGSYAMTWVRQAPGKGLEWVSTISGGGTSTDYADSVKGHFTISRDNGKNTLYLQMNSLRAEDTAVYYCVKESDYYMASVNGMDVWGHGTTVTVSS
VL: EIVLTQSPGTLSLSPGERATLSCRARQGVSSTYLAWYQQKPGQAPRLLIYGASSRATGIPDRFSGSGSGADFTLTISRLEPEDFAVYYCQQYGTSPYTFGQGTKLEIK
notes: IgG; V domains only
In turn, B19 had a concentration giving a half-maximal response (EC50) of 3.31 ng/mL. Compared with the last molecule, the EC50 is about 2.2-fold higher.

B20: C841 (antibody, V domains shown)
VH: EVQLVESGGGLVQPGGSLRLSCAASGFTFSIFSMNWVRQAPGKGLEWISYISSSSGSRHYADSVKGRFTISRDNAKNSLYLQMNNLRDEDTAMYYCAREAHDGALTGYGDYLNWFDPWGQGVLVTVSS
VL: SYELTQPPSVSVAPGKTARIPCGGDSVGSKSVHWYQQKSGQAPVLVIHSDSDRPSGIPERFSGSNSGNTATLTITGVAAGDEADYYCHVWDTIGDRFYWVFGGGTKLTVL
notes: IgG; V domains only
Take B20: the EC50 was 3.15 ng/mL.

B21: C860 (antibody, V domains shown)
VH: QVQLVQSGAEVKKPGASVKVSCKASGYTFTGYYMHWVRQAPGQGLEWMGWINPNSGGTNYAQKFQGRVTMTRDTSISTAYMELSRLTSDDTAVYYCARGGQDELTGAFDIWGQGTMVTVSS
VL: SYELTQPPSVSVAPGKTARITCGGNSIGSKSVHWYQQKPGQAPVLVIYYDSDRPSGIPERFSGSNSGNTATLTISRVEAGDEADFHCQVWDSGWVFGGGTKLTVL
notes: IgG; V domains only
Molecule B21 showed a half-maximal effective concentration (EC50) of 2.61 ng/mL.

B22: C852 (antibody, V domains shown)
VH: QVQLVQSGAEVKKPGASVKVSCKASGYIFTGFYMHWVRQAPGQGPEWMGWINPNSGGTNYAQKFQGRVTMTRDTSISTAYMELSRLRSDDTALYYCARGGQDELTGTFDVWGQGTMVTVSS
VL: SYELTQPPSVSLAPGKTASITCGGDSIGSKSVHWYQQRPGQAPILVIYYDGDRPSGIPERFSGSNSGNTATLTISRVEAGDEADYYCQVWDGGWVFGGGTKLTVL
notes: IgG; V domains only
Turning to B22, a half-maximal effect (EC50) was put at 4.59 ng/mL.

B23: C844 (antibody, V domains shown)
VH: EVQLVESGGGLVKPGGSLRLSCVATGFSFSDAWMNWVRQAPGKGLEWVGRIRSEIADGTTDYAAPVKGRFTISRDDARNTLYLQMNSLEIEDTAVYYCTTGVVVVVSSSPDDAFDVWGQGTMVTVSS
VL: DIQMTQSPSSLSASVGDRVTITCRASQSIGHYLNWYQQKPGKAPKLLIYAASSLQSGVPSRFSGSGSGAGFTLTVNGLQPEDLATYYCQQYYTTPPTFGQGTKVEIK
notes: IgG; V domains only
For the molecule B23, the response was half-maximal at 1.53 ng/mL (EC50).

Usually EC50 stands for the midpoint of the concentration-response curve. Low values mean greater potency, high ones weaker potency.
